Results on one substance are retold here after US6852907.

For the data set, the target named is T1, BV1 movement protein, untagged (tomato leaf curl virus (New Delhi)) (UniProt A0A143TU21).
T1 sequence: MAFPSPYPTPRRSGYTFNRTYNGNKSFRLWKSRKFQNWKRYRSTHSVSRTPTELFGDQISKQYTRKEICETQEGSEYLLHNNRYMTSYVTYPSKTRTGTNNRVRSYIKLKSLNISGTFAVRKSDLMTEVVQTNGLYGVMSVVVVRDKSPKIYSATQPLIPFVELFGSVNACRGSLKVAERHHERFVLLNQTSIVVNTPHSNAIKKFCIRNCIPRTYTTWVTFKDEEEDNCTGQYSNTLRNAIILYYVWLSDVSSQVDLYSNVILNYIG
Put plainly: cell_activity. Particulars: ssDNA accumulation in BY2 protoplasts (indirect), range 50-121.

In the case of “ToLCV-Nde A component viral ssDNA (CP-replacement constructs)”, the binding signal (% of wild type ssDNA) was determined as 86.
